Reference: the RNAGym collection of RNA variant scans (doi:10.1093/molbev/msab373)

B1: Azoarcus group I ribozyme (parent)
chain: GUGCCUUGCGCCGGGAAACCACGCAAGGGAUGGUGUCAAAUUCGGCGAAACCUAAGCGCCCGCCCGGGCGUAUGGCAACGCCGAGCCAAGCUUCGGCGCCUGCGCCGAUGAAGGUGUAGAGACUAGACGGCACCCACCUAAGGCAAACGCUAUGGUGAAGGCAUAGUCCAGGGAGUGGCGAAAGUCACACAAACCGG

Variants of: B1
Experiment: reverse-splicing fitness (ratio to wild type); higher = more active; in vitro selection; Mg2+ level not given
Summary of the method: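 An in vitro group I ribozyme library with randomized positions was T7-transcribed and gel-purified. In triplicate, 10 pmol RNA in EPPS pH 7.5 was reacted with 50 pmoles of a 30-nt RNA substrate for 1 h at 37 °C across several added MgCl2 levels (1–48 mM), then stopped with EDTA. Products were reverse transcribed from a substrate-complementary primer, PCR-amplified and sequenced (HiSeq 4000). Fitness is a variant's read proportion after selection over that before, normalised to wild type.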
C82A A111U A120C A145G C150G showed a reverse-splicing fitness of 0.0101.
Variant C82A A111U A120C A145G C150G C169A has a reverse-splicing fitness of 0.00936.
With C82A A111U A120C A145G C150G C169A U176A the reverse-splicing fitness was 0.0164.
Work on C82A A111U A120C A145G C150G C169A U176C yielded a reverse-splicing fitness of 0.016.
In the case of C82A A111U A120C A145G C150G C169A U176G, the reverse-splicing fitness is reported as 0.00887.
For C82A A111U A120C A145G C150G C169G, the reverse-splicing fitness was 0.00768.
C82A A111U A120C A145G C150G C169G U176A gave a reverse-splicing fitness of 0.0112.
Variant C82A A111U A120C A145G C150G C169G U176C has a reverse-splicing fitness of 0.0155.
For C82A A111U A120C A145G C150G C169G U176G, the reverse-splicing fitness was 0.00673.
In the case of C82A A111U A120C A145G C150G C169U, the reverse-splicing fitness is reported as 0.0104.
Work on C82A A111U A120C A145G C150G C169U U176A yielded a reverse-splicing fitness of 0.0146.
Work on C82A A111U A120C A145G C150G C169U U176C yielded a reverse-splicing fitness of 0.0129.
C82A A111U A120C A145G C150G C169U U176G showed a reverse-splicing fitness of 0.00787.
In the case of C82A A111U A120C A145G C150G U176A, the reverse-splicing fitness is reported as 0.00848.
With C82A A111U A120C A145G C150G U176C the reverse-splicing fitness was 0.0126.
C82A A111U A120C A145G C150G U176G gave a reverse-splicing fitness of 0.00733.
In the case of C82A A111U A120C A145G C150U, the reverse-splicing fitness is reported as 0.0255.
C82A A111U A120C A145G C150U C169A showed a reverse-splicing fitness of 0.0113.
In the case of C82A A111U A120C A145G C150U C169A U176A, the reverse-splicing fitness is reported as 0.0182.
For C82A A111U A120C A145G C150U C169A U176C, the reverse-splicing fitness was 0.018.
C82A A111U A120C A145G C150U C169A U176G showed a reverse-splicing fitness of 0.00943.
C82A A111U A120C A145G C150U C169G gave a reverse-splicing fitness of 0.00957.
Variant C82A A111U A120C A145G C150U C169G U176A has a reverse-splicing fitness of 0.0138.
For C82A A111U A120C A145G C150U C169G U176C, the reverse-splicing fitness was 0.0201.
C82A A111U A120C A145G C150U C169G U176G showed a reverse-splicing fitness of 0.00639.
Variant C82A A111U A120C A145G C150U C169U has a reverse-splicing fitness of 0.0127.
Work on C82A A111U A120C A145G C150U C169U U176A yielded a reverse-splicing fitness of 0.0152.
C82A A111U A120C A145G C150U C169U U176C gave a reverse-splicing fitness of 0.0148.
With C82A A111U A120C A145G C150U C169U U176G the reverse-splicing fitness was 0.00781.
For C82A A111U A120C A145G C150U U176A, the reverse-splicing fitness was 0.0126.
Variant C82A A111U A120C A145G C150U U176C has a reverse-splicing fitness of 0.0246.
Work on C82A A111U A120C A145G C150U U176G yielded a reverse-splicing fitness of 0.00822.
For C82A A111U A120C A145G C169A, the reverse-splicing fitness was 0.0113.
C82A A111U A120C A145G C169A U176A showed a reverse-splicing fitness of 0.0312.
For C82A A111U A120C A145G C169A U176C, the reverse-splicing fitness was 0.0332.
Work on C82A A111U A120C A145G C169A U176G yielded a reverse-splicing fitness of 0.00699.
Variant C82A A111U A120C A145G C169G has a reverse-splicing fitness of 0.0103.
For C82A A111U A120C A145G C169G U176A, the reverse-splicing fitness was 0.0259.
Variant C82A A111U A120C A145G C169G U176C has a reverse-splicing fitness of 0.0355.
Variant C82A A111U A120C A145G C169G U176G has a reverse-splicing fitness of 0.00647.
For C82A A111U A120C A145G C169U, the reverse-splicing fitness was 0.0142.
Work on C82A A111U A120C A145G C169U U176A yielded a reverse-splicing fitness of 0.0178.
In the case of C82A A111U A120C A145G C169U U176C, the reverse-splicing fitness is reported as 0.0156.
For C82A A111U A120C A145G C169U U176G, the reverse-splicing fitness was 0.00584.
Variant C82A A111U A120C A145G U176A has a reverse-splicing fitness of 0.0187.
With C82A A111U A120C A145G U176C the reverse-splicing fitness was 0.0361.
C82A A111U A120C A145G U176G showed a reverse-splicing fitness of 0.00731.
C82A A111U A120C A145U gave a reverse-splicing fitness of 0.0284.
Variant C82A A111U A120C A145U C150A has a reverse-splicing fitness of 0.0107.
Variant C82A A111U A120C A145U C150A C169A has a reverse-splicing fitness of 0.0109.
For C82A A111U A120C A145U C150A C169A U176A, the reverse-splicing fitness was 0.0231.
For C82A A111U A120C A145U C150A C169A U176C, the reverse-splicing fitness was 0.0189.
Work on C82A A111U A120C A145U C150A C169A U176G yielded a reverse-splicing fitness of 0.00919.
For C82A A111U A120C A145U C150A C169G, the reverse-splicing fitness was 0.00953.
C82A A111U A120C A145U C150A C169G U176A gave a reverse-splicing fitness of 0.0219.
C82A A111U A120C A145U C150A C169G U176C showed a reverse-splicing fitness of 0.0263.
In the case of C82A A111U A120C A145U C150A C169G U176G, the reverse-splicing fitness is reported as 0.00723.
For C82A A111U A120C A145U C150A C169U, the reverse-splicing fitness was 0.0109.
C82A A111U A120C A145U C150A C169U U176A showed a reverse-splicing fitness of 0.0174.
For C82A A111U A120C A145U C150A C169U U176C, the reverse-splicing fitness was 0.0133.
C82A A111U A120C A145U C150A C169U U176G gave a reverse-splicing fitness of 0.00856.
C82A A111U A120C A145U C150A U176A gave a reverse-splicing fitness of 0.0108.
For C82A A111U A120C A145U C150A U176C, the reverse-splicing fitness was 0.0223.
Variant C82A A111U A120C A145U C150A U176G has a reverse-splicing fitness of 0.00762.
In the case of C82A A111U A120C A145U C150G, the reverse-splicing fitness is reported as 0.00883.
For C82A A111U A120C A145U C150G C169A, the reverse-splicing fitness was 0.00962.
Variant C82A A111U A120C A145U C150G C169A U176A has a reverse-splicing fitness of 0.0117.
C82A A111U A120C A145U C150G C169A U176C showed a reverse-splicing fitness of 0.0116.
For C82A A111U A120C A145U C150G C169A U176G, the reverse-splicing fitness was 0.00766.
C82A A111U A120C A145U C150G C169G gave a reverse-splicing fitness of 0.00869.
With C82A A111U A120C A145U C150G C169G U176A the reverse-splicing fitness was 0.00986.
Variant C82A A111U A120C A145U C150G C169G U176C has a reverse-splicing fitness of 0.00626.
C82A A111U A120C A145U C150G C169G U176G showed a reverse-splicing fitness of 0.00698.
Work on C82A A111U A120C A145U C150G C169U yielded a reverse-splicing fitness of 0.01.
C82A A111U A120C A145U C150G C169U U176A gave a reverse-splicing fitness of 0.00711.
For C82A A111U A120C A145U C150G C169U U176C, the reverse-splicing fitness was 0.0117.
C82A A111U A120C A145U C150G C169U U176G showed a reverse-splicing fitness of 0.00741.
Variant C82A A111U A120C A145U C150G U176A has a reverse-splicing fitness of 0.00752.
With C82A A111U A120C A145U C150G U176C the reverse-splicing fitness was 0.00808.
For C82A A111U A120C A145U C150G U176G, the reverse-splicing fitness was 0.00439.
Variant C82A A111U A120C A145U C150U has a reverse-splicing fitness of 0.0216.
Variant C82A A111U A120C A145U C150U C169A has a reverse-splicing fitness of 0.0111.
Variant C82A A111U A120C A145U C150U C169A U176A has a reverse-splicing fitness of 0.0216.
C82A A111U A120C A145U C150U C169A U176C gave a reverse-splicing fitness of 0.0168.
